Reference: US6710165B2, “IgE-dependent histamine-releasing factor-binding peptides” (priority 2000, dated 2004)

Legend:
RBL-2H3 cells [1] = assay: Histamine release by HRF (RIA); format: cell-based; conditions: IgE-sensitized RBL-2H3 cells, 20 μg/ml recombinant HRF
Procedure: The full-length rat HRF sequence amplified by PCR was cloned in pRSET-A vector and then, overexpressed in E. coli. The expressed recombinant protein was purified using His-bound Ni column (Novagen) and used for stimulation of RBL-2H3 cells. RBL-2H3 cells were grown in 24-well plate at 1×10^6 cells, sensitized with rat IgE antibody (0.2 μg/ml, Serotec) for 45˜60 minutes and treated with 20 μg/ml of the recombinant HRF protein and the inhibitors as used above, respectively. The obtained sample was prepared to acylated histamine using RIA-analysis kit (Immunotech, France) and competitively bound to ^125I-acylated histamine and monoclonal antibodies. The sample was analyzed by γ-counter.

[2] = test system: (Na,K)ATPase large cytoplasmic loop (CD3); assay: Yeast 2-hybrid analysis of HRF binding to (Na,K)ATPase large cytoplasmic loop; parameters: species or system rat; conditions: CD3 of (Na,K)ATPase α1 and α2 subunits as bait
Text: The total cytoplasmic RNA was extracted from rat skeletal muscle and then, cDNA library for yeast 2-hybrid analysis was constructed by using pJG4-5 vector. CD3 region of (Na,K)ATPase α2 subunit was inserted to LexA DNA binding domain (pEG202 vector) and the inserts were used as bait for screening. Positive clones activating reporter gene were selected and sequence analyzed by sequencing, restriction mapping and BLAST search. Among those clones, one clone had the completely identical sequence with HRF.
CD3 regions of (Na,K)ATPase α1 and 2 subunits were inserted to pEG202 vector and then, the interaction by isoforms was examined. Yeast cells containing LexAop-LEU2 and LexAop-LacZ reporter genes (EGY48/pSH18-34) were transformed with all the constructs as prepared above and then, grown in a selective medium plate.

PC12 cells = assay: [3H]-dopamine release by HRF; format: cell-based
Procedure: It was examined whether or not HRF functions as the inhibitor of (Na,K)ATPase enzyme to stimulate neurotransmitters release. For this purpose, HRF was added to the culture solution of PC12 cells (Abu-Raya, et al., 1999) and then, changes in [^3H]-labeled dopamine release induced in basal and K^+-depolarized state by addition of HRF were measured. PC12 cells from passage numbers 5 to 15 were cultured in RPMI-1640 medium containing 10% horse serum, 5% fetal bovine serum, penicillin (100 U/ml) and streptomycin (100 μg/ml) with the supply of 5% CO2 at 37° C.
To measure [^3H]-dopamine release, one day prior to the experiment, the cells ([…]) were cultured in 12-well dish coated with poly-L-lysine (10 μg/ml). The fresh medium containing [^3H]-dopamine (0.5 μCi/ml) was loaded thereto and then, the cells were further cultured at 37° C. for 3 hours. They were washed 2 or 3 times with 1 ml of PBS(1×) per well. To Krebs Ringer (KR) buffer (125 mM NaCl, 5 mM KCl, 2 mM CaCl2, 10 mM HEPES, 1.2 mM MgSO4, 1.2 mM KH2PO4, 6 mM glucose, 5 mM NaHCO3), ascorbic acid (0.2 mg/ml), pargyline (0.6 mg/ml) and despiramine (2 μM) were added. Each 1 ml of the mixture was loaded with HRF and the reaction was proceeded at 37° C. for 20 minutes. The release in the depolarization state was measured in KR buffer containing 50 mM KCl, and in Ca^2+-free medium, was measured in KR buffer prepared by removal of CaCl2 with the addition of 0.5 mM EGTA.
Upon completion of the reaction, the radioactivity of the released dopamine was measured after centrifuging the culture solution at 4° C., 1,000×g for 10 minutes. The cells were solubilized with 0.5 N NaOH and then, the radioactivity within the tissue was measured. The release rate (%) of dopamine was calculated by [radioactivity of the supernatant/(radioactivity of the supernatant+radioactivity within the tissue)×100].
As compared with the increase in basal release, the increase in K^+-stimulated release was shifted to left, but the extent thereof was relatively small.

RBL-2H3 cells [3] = assay: Intracellular Ca2+ concentration (Fluo-3-AM); format: cell-based
Procedure: RBL-2H3 cells were cultivated according to the same procedure as in Example 6 and then, washed with Krebs-Ringer buffer (KRH, 125 mM NaCl, 1.2 mM KH2PO4, 1.2 mM MgSO4, 6 mM glucose, 2 mM CaCl2, 25 mM Hepes, pH 7.4). Subsequently, they were incubated with 2 μM Fluo-3-AM (Molecular Probes, Eugene, Oreg.) and KRH buffer containing 0.2% BSA for 30 minutes and then, the culture was corrected with DMEM complete medium for 10˜30 minutes. Subsequently, the cells were washed with KRH buffer and sensitized according to the same procedure as in Example 6. After the sensitization, the cells were treated with HRF, anti-IgE (Serotec) and each inhibitor together with histamine releasing buffer (100 mM NaCl, 0.4 mM MgCl2, 5 mM KCl, 5.6 mM glucose, 0.1% BSA, 25 mM Hepes, pH 7.4) in the presence or absence of Ca^2+. The fluorescence of fluo-3AM was measured at 488/515 nm using laser scanning confocal microscope.

B1: HRF: recombinant full-length rat HRF overexpressed in E. coli; protein consisting of 172 amino acids (protein)
chain: MIIYRDLISHDELFSDIYKIREIADGLCLEVEGKMVSRTEGAIDDSLIGGNASAEGPEGEGTESTVVTGVDIVMNHHLQETSFTKEAYKKYIKDYMKSLKGKLEEQKPERVKPFMTGAAEQIKHILANFNNYQFFIGENMNPDGMVALLDYREDGVTPFMIFFKDGLEMEKC
modifications: left off: small tags and cut ends
notes: recombinant full-length rat HRF overexpressed in E. coli; protein consisting of 172 amino acids
With B1 the histamine release (RBL-2H3 cells [1]) was “histamine was released by HRF”, the “HRF binding to (Na,K)ATPase CD3 in yeast 2-hybrid” value [2] was “HRF receptor corresponds to large cytoplasmic loop (CD3) of (Na,K)ATPase” and the “HRF concentration at which dopamine release was steeply increased and the cells detached and reached to death” value (PC12 cells) was at least 30 µg. For the same molecule, the “K+-stimulated dopamine release in depolarization” value (PC12 cells; 50 mM KCl) was “dose-dependently increased K^+-stimulated dopamine release”, the “basal release of dopamine” value (PC12 cells; basal state) was “dose-dependently increased the basal release of dopamine” and the “dopamine release at HRF 10 μg” value (PC12 cells; basal, HRF 10 μg) was “increased to the extent similar to the K^+-stimulated release in depolarization”. For the same molecule, the “effect on intracellular Ca2+ concentration” value (RBL-2H3 cells [3]) was “intracellular Ca^2+ concentration was increased”.
